In patent US12091446 (NATIONAL TECHNOLOGY AND ENGINEERING SOLUTIONS OF SANDIA, dated 2024):
Like-named read-outs stand apart in the source and are kept apart here.

Experiments:
[1] = target: T1, SARS-COV-2 spike, Wuhan (original) (SARS-COV-2, UniProt P0DTC2 14-1273); test: cell-based or functional assay
[2] = target: T1, SARS-COV-2 spike, Wuhan (original); test: cell-based or functional assay; remark: listed apart in the source

Binder | EC50, neutralization of spike pseudotyped virus [1] | EC50, neutralization of spike pseudotyped virus [2]
AP1B6 Nb-huFc (Fc fusion) EVQLQASGGGFVQPGGSLRLSCAASGSAFQIYAMGWFRQAPGKEREFVSAISSTDSETDHYADSVKGRFTISRDNSKNTVYLQMNSLRAEDTATYYCAVNGFDYAHSKAGPQVYWGQGTQVTVSS | 3.32 nM | –
DP4F2 Nb-huFc (Fc fusion) EVQLQASGGGFVQPGGSLRLSCAASGTTYSERVMGWFRQAPGKEREFVSAISSGQSDQTYYYADSVKGRFTISRDNSKNTVYLQMNSLRAEDTATYYCAPFAGDANLPREWYWGQGTQVTVSSA | – | 65.8 nM
AP1D4 Nb-huFc (Fc fusion) EVQLQASGGGFVQPGGSLRLSCAASGHTFDAHRMGWFRQAPGKEREFVSAISSWGQSSTYYADSVKGRFTISRDNSKNTVYLQMNSLRAEDTATYYCAQTDEGNQYVYWGQGTQVTVSS | 6.62 nM | –
AP1A5 Nb-huFc (Fc fusion) EVQLQASGGGFVQPGGSLRLSCAASGSTASHYTMGWFRQAPGKEREFVSAISSGRDHAKQYADSVKGRFTISRDNSKNTVYLQMNSLRAEDTATYYCAYEEINATQKDTLYWGQGTQVTVSS | 11.9 nM | –
BP2A6 Nb-huFc (Fc fusion) EVQLQASGGGFVQPGGSLRLSCAASGQTFSHYIMGWFRQAPGKEREFVSAISAGQGHATYYADSVKGRFTISRDNSKNTVYLQMNSLRAEDTATYYCAKYQDTIAPLYWGQGTQVTVSS | 0.77 nM | –
KP1C9 Nb-huFc (Fc fusion) EVQLQASGGGFVQPGGSLRLSCAASGRTFDAYSMGWFRQAPGKEREFVSAISSWSDDWTAYADSVKGRFTISRDNSKNTVYLQMNSLRAEDTATYYCALQNTKEDRLYWGQGTQVTVSS | – | 2.89 nM
AP1C3 Nb-huFc (Fc fusion) EVQLQASGGGFVQPGGSLRLSCAASGRTYRGYSMGWFRQAPGKEREFVSAISSWSDDWTAYADSVKGRFTISRDNSKNTVYLQMNSLRAEDTATYYCAWQYIDEIQYYWGQGTQVTVSS | 1.04 nM | –
BP1B1 Nb-huFc (Fc fusion) EVQLQASGGGFVQPGGSLRLSCAASGRTFSGYIMGWFRQAPGKEREFVSAISQGDSYASYYADSVKGRFTISRDNSKNTVYLQMNSLRAEDTATYYCALYDINTVPYYWGQGTQVTVSS | – | 4.13 nM
KP1B5 Nb-huFc (Fc fusion) EVQLQASGGGFVQPGGSLRLSCAASGFTFDWSAMGWFRQAPGKEREFVSAISSSTSESTTYADSVKGRFTISRDNSKNTVYLQMNSLRAEDTATYYCATYYGGKTVEQDFYWGQGTQVTVSS | – | 896 nM
BP2A3 Nb-huFc (Fc fusion) EVQLQASGGGFVQPGGSLRLSCAASGRTFSAYSMGWFRQAPGKEREFVSAISAGDGAASYYADSVKGRFTISRDNSKNTVYLQMNSLRAEDTATYYCAHYYTTSATLDYAYWGQGTQVTVSS | – | 58.5 nM
KP2C6 Nb-huFc (Fc fusion) EVQLQASGGGFVQPGGSLRLSCAASGRTFTSFHMGWFRQAPGKEREFVSAISSGDDGTQYYADSVKGRFTISRDNSKNTVYLQMNSLRAEDTATYYCAAYTTTTVPQYWGQGTQVTVSS | – | 517 nM
BP1A10 Nb-huFc (Fc fusion) EVQLQASGGGFVQPGGSLRLSCAASGQPSDRYIMGWFRQAPGKEREFVSAISQGAANKTAYADSVKGRFTISRDNSKNTVYLQMNSLRAEDTATYYCATHFNWQNYSYWGQGTQVTVSS | 8.38 nM | –
